From article PMC4898653 (2017)

Experiments:
cationic trypsin = cationic trypsin (Homo sapiens, UniProt P07477); assay: enzyme inhibition
kallikrein-6 = kallikrein-6 (Homo sapiens, UniProt Q92876); assay: enzyme inhibition
factor XIa = factor XIa (Homo sapiens, UniProt P03951); assay: enzyme inhibition
anionic trypsin = molecular target: T1, anionic trypsin (Homo sapiens, UniProt P07478); assay: enzyme inhibition
T1 chain: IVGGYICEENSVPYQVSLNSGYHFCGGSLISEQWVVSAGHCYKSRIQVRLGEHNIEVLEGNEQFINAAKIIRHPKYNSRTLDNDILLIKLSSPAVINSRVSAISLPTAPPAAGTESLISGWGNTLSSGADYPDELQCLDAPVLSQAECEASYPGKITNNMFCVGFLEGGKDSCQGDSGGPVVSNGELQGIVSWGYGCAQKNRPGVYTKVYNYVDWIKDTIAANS

mesotrypsin = molecular target: T2, mesotrypsin (Homo sapiens, UniProt P35030); assay: competitive inhibition of Z-GPR-pNA cleavage
T2 chain: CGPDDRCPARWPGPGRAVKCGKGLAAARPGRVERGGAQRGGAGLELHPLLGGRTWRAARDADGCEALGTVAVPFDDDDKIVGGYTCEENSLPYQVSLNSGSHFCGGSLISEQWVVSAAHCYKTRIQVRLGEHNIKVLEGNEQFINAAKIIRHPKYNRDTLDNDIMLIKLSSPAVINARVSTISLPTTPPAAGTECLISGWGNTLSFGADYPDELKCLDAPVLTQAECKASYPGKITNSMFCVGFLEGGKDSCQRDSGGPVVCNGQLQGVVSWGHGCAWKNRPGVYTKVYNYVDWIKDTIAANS

factor XIa, sequence (P03951 388-625): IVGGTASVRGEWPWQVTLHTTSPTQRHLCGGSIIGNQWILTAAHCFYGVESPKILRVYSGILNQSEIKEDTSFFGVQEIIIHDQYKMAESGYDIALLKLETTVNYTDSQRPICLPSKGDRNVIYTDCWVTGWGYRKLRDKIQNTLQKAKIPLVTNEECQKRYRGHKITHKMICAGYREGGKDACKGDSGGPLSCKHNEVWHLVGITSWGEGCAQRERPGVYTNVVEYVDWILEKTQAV

Ki (cationic trypsin): 0.00627 nM | Ki (kallikrein-6): 2.23 nM | Ki (factor XIa): 0.41 nM | Ki (anionic trypsin): 0.00174 nM | Ki (mesotrypsin): 131 nM
B1: APPI Kunitz domain (protein)
chain: VREVCSEQAETGPCRAMISRWYFDVTEGKCAPFFYGGCGGNRNNFDTEEYCMAVCGSA
